What was measured:
PSMA = target: T1, PSMA (Homo sapiens, UniProt Q04609); assay: NAALADase assay with LNCaP homogenized cell membranes and [N-acetyl aspartyl ^3H-glutamate]; assay type: binding; settings: LNCaP homogenized cell membranes, read-out: IC50 LNCaP cells
T1 construct: endogenous in cells; host or cells: LNCaP human prostate cancer cells, homogenized cell membranes
Method: (§1) (NAAG) as the radioligands. […] After incubation, the reaction medium was aspirated and the cells were rinsed three times with cold media. Cell-associated radioactivity was determined using a Packard Riastar gamma counter. […] The enzymatic reaction was stopped by addition of 50 μL of cold sodium phosphate buffer (0.1 M, pH=7.4). […] Scintillation cocktail was added to each fraction and the amount of radioactivity in each was determined by liquid scintillation counting.
(§2) (NAAG) as the radioligands. […] After incubation, the reaction medium was aspirated and the cells were rinsed three times with cold media. Cell-associated radioactivity was determined using a Packard Riastar gamma counter. […] For the PSMA-positive assay, the binding affinity was measured using the N-acetylated-α-linked acidic dipeptidase (NAALADase) assay. […] The enzymatic reaction was stopped by addition of 50 μL of cold sodium phosphate buffer (0.1 M, pH=7.4). […] Columns were pre-equilibrated with 0.2 M HCl prior to loading of the reaction mixture. […] Scintillation cocktail was added to each fraction and the amount of radioactivity in each was determined by liquid scintillation counting.

GRPR = target: T2, GRPR (Homo sapiens, UniProt P30550); assay: Competitive displacement binding assay in GRPR-positive PC-3 cells with [^125I-(Tyr4)-BBN]; settings: radioligand [^125I-(Tyr4)-BBN], 1 h, 37° C., read-out: IC50 PC3 cells
T2 construct: endogenous in cells; host or cells: PC-3 human prostate cancer cells (intact cells)
T2 sequence (P30550 whole entry): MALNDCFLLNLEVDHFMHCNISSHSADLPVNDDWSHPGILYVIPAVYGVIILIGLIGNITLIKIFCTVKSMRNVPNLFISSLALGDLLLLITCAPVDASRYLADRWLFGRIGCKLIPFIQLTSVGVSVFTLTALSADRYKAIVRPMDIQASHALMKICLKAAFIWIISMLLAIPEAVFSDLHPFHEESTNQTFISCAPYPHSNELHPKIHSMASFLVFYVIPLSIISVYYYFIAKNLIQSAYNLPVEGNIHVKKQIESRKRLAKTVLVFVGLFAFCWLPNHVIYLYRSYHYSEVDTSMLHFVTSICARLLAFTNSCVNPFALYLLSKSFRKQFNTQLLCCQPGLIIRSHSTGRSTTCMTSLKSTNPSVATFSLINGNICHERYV
Method: as §1, §2

in vivo [1] = assay: in vivo; parameters: species or system ICR-SCID male mice; settings: male, ICR-SCID, mouse, iv, total radioactivity, Brain uptake
in vivo [2] = assay: in vivo; parameters: species or system CF-1 normal mice; settings: CF-1, mouse, iv, total radioactivity
in vivo [3] = assay: in vivo; parameters: species or system ICR-SCID male mice; settings: male, ICR-SCID, mouse, iv, total radioactivity, Pancreas uptake
prostate tumors = settings: newly diagnosed PCa patients; cited from earlier work
metastatic disease = settings: ^68Ga-labeled agent; cited from earlier work

T1 sequence (Q04609 whole entry): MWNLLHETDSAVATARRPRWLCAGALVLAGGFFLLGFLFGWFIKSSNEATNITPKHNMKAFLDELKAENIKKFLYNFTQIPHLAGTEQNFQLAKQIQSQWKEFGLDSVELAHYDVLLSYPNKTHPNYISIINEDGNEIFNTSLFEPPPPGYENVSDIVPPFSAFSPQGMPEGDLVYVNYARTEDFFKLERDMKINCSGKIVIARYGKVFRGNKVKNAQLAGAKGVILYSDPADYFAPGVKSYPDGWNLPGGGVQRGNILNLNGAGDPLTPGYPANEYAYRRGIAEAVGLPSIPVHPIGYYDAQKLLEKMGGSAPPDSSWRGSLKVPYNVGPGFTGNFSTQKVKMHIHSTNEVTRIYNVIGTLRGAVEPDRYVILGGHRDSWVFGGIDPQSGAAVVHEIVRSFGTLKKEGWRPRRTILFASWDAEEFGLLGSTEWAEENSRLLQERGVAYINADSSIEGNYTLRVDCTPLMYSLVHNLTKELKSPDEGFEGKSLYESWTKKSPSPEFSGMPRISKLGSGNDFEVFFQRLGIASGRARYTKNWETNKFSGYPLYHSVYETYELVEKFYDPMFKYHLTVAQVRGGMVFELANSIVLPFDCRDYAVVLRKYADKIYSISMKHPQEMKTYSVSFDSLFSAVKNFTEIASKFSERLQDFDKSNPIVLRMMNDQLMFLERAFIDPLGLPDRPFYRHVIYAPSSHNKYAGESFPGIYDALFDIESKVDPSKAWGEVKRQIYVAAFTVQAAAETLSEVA

| Compound | IC50 (PSMA) [nM] | tissue uptake at 1 h (in vivo [2]; Bone uptake) [%ID/g] | tissue uptake at 1 h (in vivo [2]; Brain uptake) [%ID/g] | tissue uptake at 1 h (in vivo [2]; Heart uptake) [%ID/g] | tissue uptake at 1 h (in vivo [2]; Kidneys uptake) [%ID/g] | tissue uptake at 1 h (in vivo [2]; L. Intestine uptake) [%ID/g] | tissue uptake at 1 h (in vivo [2]; Liver uptake) [%ID/g] | tissue uptake at 1 h (in vivo [2]; Lung uptake) [%ID/g] | tissue uptake at 1 h (in vivo [2]; Muscle uptake) [%ID/g] | tissue uptake at 1 h (in vivo [2]; Pancreas uptake) [%ID/g] | tissue uptake at 1 h (in vivo [2]; Spleen uptake) [%ID/g] | tissue uptake at 1 h (in vivo [2]; Stomach uptake) [%ID/g] | tissue uptake at 1 h (in vivo [2]; S. Intestine uptake) [%ID/g] | also measured |
| --- | --- | --- | --- | --- | --- | --- | --- | --- | --- | --- | --- | --- | --- | --- |
| [DUPA-6-Ahx-Lys(M-DOTA)-6-Ahx-RM2] | 9.3 ± 2.32 |  |  |  |  |  |  |  |  |  |  |  |  | IC50 (GRPR): 3.99 ± 1.8 nM |
| CC(C)C[C@H](NC(=O)C[C@H](O)[C@H](CC(C)C)NC(=O)[C@H](Cc1c[nH]cn1)NC(=O)CNC(=O)[C@@H](NC(=O)[C@H](C)NC(=O)[C@H](Cc1c[nH]c2ccccc12)NC(=O)[C@H](CCC(N)=O)NC(=O)[C@@H](Cc1ccccc1)NC(=O)CCCCCCCNC(=O)[C@H](CCCCNC(=O)CN1CCN(CC(=O)O)CCN(CC(=O)O)CCN(CC(=O)O)CC1)NC(=O)CCCCCNC(=O)CC[C@H](NC(=O)N[C@@H](CCC(=O)O)C(=O)O)C(=O)O)C(C)C)C(N)=O [DUPA-6-Ahx-Lys(^111In-DOTA)-8-Aoc-RM2, metal not drawn] |  | 0.14 ± 0.04 | 0.02 | 0.2 ± 0.14 | 1.37 ± 0.31 | 0.49 ± 0.25 | 0.38 ± 0.04 | 0.37 ± 0.03 | 0.1 ± 0.01 | 5.45 ± 0.47 | 0.49 ± 0.34 | 1.73 ± 2.49 |  | tissue uptake at 24 h (in vivo [1]): 0.01 %ID/g; tissue uptake at 4 h (in vivo [3]): 0.58 ± 0.1 %ID/g |
| ^64Cu-CB-TE2A-AR06 |  |  |  |  |  |  |  |  |  |  |  |  |  | High contrast imaging of prostate tumors, fraction of men (prostate tumors): ¾ |
| CC(C)C[C@H](NC(=O)C[C@H](O)[C@H](CC(C)C)NC(=O)[C@H](Cc1c[nH]cn1)NC(=O)CNC(=O)[C@@H](NC(=O)[C@H](C)NC(=O)[C@H](Cc1c[nH]c2ccccc12)NC(=O)[C@H](CCC(N)=O)NC(=O)[C@@H](Cc1ccccc1)NC(=O)CCCCCNC(=O)[C@H](CCCCNC(=O)CN1CCN(CC(=O)O)CCN(CC(=O)O)CCN(CC(=O)O)CC1)NC(=O)CCCCCNC(=O)CC[C@H](NC(=O)N[C@@H](CCC(=O)O)C(=O)O)C(=O)O)C(C)C)C(N)=O [DUPA-6-Ahx-Lys(^111In-DOTA)-6-Ahx-RM2, metal not drawn] |  | 0.08 ± 0.06 | 0.03 ± 0.04 | 0.16 ± 0.22 | 2.84 ± 0.64 | 0.14 ± 0.12 | 0.23 ± 0.14 | 0.86 ± 0.7 | 0.07 ± 0.07 | 0.19 ± 0.19 | 0.12 ± 0.13 | 0.14 ± 0.11 | 0.22 ± 0.13 |  |
| CC(C)C[C@H](NC(=O)C[C@H](O)[C@H](CC(C)C)NC(=O)[C@H](Cc1c[nH]cn1)NC(=O)CNC(=O)[C@@H](NC(=O)[C@H](C)NC(=O)[C@H](Cc1c[nH]c2ccccc12)NC(=O)[C@H](CCC(N)=O)NC(=O)[C@@H](Cc1ccccc1)NC(=O)CCCCNC(=O)[C@H](CCCCNC(=O)CN1CCN(CC(=O)O)CCN(CC(=O)O)CCN(CC(=O)O)CC1)NC(=O)CCCCCNC(=O)CC[C@H](NC(=O)N[C@@H](CCC(=O)O)C(=O)O)C(=O)O)C(C)C)C(N)=O [DUPA-6-Ahx-Lys(^111In-DOTA)-5-Ava-RM2, metal not drawn] |  | 0.09 ± 0.06 | 0.02 ± 0.01 | 0.11 ± 0.06 | 4.92 ± 0.84 | 0.12 ± 0.05 | 0.15 ± 0.05 | 0.68 ± 0.25 | 0.06 ± 0.04 | 1.02 ± 0.37 | 0.13 ± 0.05 | 0.23 ± 0.18 | 0.26 ± 0.09 |  |
| CC(C)C[C@H](NC(=O)C[C@H](O)[C@H](CC(C)C)NC(=O)[C@H](Cc1c[nH]cn1)NC(=O)CNC(=O)[C@@H](NC(=O)[C@H](C)NC(=O)[C@H](Cc1c[nH]c2ccccc12)NC(=O)[C@H](CCC(N)=O)NC(=O)[C@@H](Cc1ccccc1)NC(=O)CCCCCNC(=O)[C@H](CCCCNC(=O)CN1CCN(CC(=O)O)CCN(CC(=O)O)CCN(CC(=O)O)CC1)NC(=O)CCCCCNC(=O)CC[C@H](NC(=O)N[C@@H](CCC(=O)O)C(=O)O)C(=O)O)C(C)C)C(N)=O [[DUPA-6-Ahx-[^natLu-DOTA]-6-Ahx-RM2]] [metal not drawn] | 13.9 ± 2.53 |  |  |  |  |  |  |  |  |  |  |  |  |  |
| CC(C)C[C@H](NC(=O)C[C@H](O)[C@H](CC(C)C)NC(=O)[C@H](Cc1c[nH]cn1)NC(=O)CNC(=O)[C@@H](NC(=O)[C@H](C)NC(=O)[C@H](Cc1c[nH]c2ccccc12)NC(=O)[C@H](CCC(N)=O)NC(=O)[C@@H](Cc1ccccc1)NC(=O)c1ccc(NC(=O)[C@H](CCCCNC(=O)CN2CCN(CC(=O)O)CCN(CC(=O)O)CCN(CC(=O)O)CC2)NC(=O)CCCCCNC(=O)CC[C@H](NC(=O)N[C@@H](CCC(=O)O)C(=O)O)C(=O)O)cc1)C(C)C)C(N)=O [DUPA-6-Ahx-Lys(^111In-DOTA)-AMBA-RM2, metal not drawn] |  | 0.06 ± 0.04 | 0.02 ± 0.01 | 0.12 ± 0.05 | 1.37 ± 0.31 | 0.09 ± 0.02 | 0.28 ± 0.04 | 1.01 ± 1.15 | 0.08 ± 0.02 | 0.24 ± 0.06 | 0.15 ± 0.04 | 0.15 ± 0.06 | 0.2 ± 0.04 |  |
| DOTA-p-aminomethylaniline-diglycolic acid-DPhe-Gln-Trp-Ala-Val-Gly-His-Leu-NHEt (FQWAVGHL; DOTA-p-aminomethylaniline-diglycolic acid N-term, C-terminal NHEt; (1)..(1) D-phenylalanine; (1)..(1) DOTA-p-aminomethylaniline-diglycolic acid linked to D-Phenylalanine) [SB3] |  |  |  |  |  |  |  |  |  |  |  |  |  | Metastatic disease detected, fraction of patients (metastatic disease): 5/9 |
| CC(C)C[C@H](NC(=O)C[C@H](O)[C@H](CC(C)C)NC(=O)[C@H](Cc1c[nH]cn1)NC(=O)CNC(=O)[C@@H](NC(=O)[C@H](C)NC(=O)[C@H](Cc1c[nH]c2ccccc12)NC(=O)[C@H](CCC(N)=O)NC(=O)[C@@H](Cc1ccccc1)NC(=O)CCCCCCCNC(=O)[C@H](CCCCNC(=O)CN1CCN(CC(=O)O)CCN(CC(=O)O)CCN(CC(=O)O)CC1)NC(=O)CCCCCNC(=O)CC[C@H](NC(=O)N[C@@H](CCC(=O)O)C(=O)O)C(=O)O)C(C)C)C(N)=O [[DUPA-6-Ahx-[^natLu-DOTA]-8-Aoc-RM2]] [metal not drawn] | 16 ± 2.79 |  |  |  |  |  |  |  |  |  |  |  |  |  |

From patent US11167048B2, “Dual targeting ligand for cancer diagnosis and treatment” (priority 2018, dated 2021)
